T1: mouse E-cadherin (form in the assay not stated) (mouse, UniProt P09803 157-709, limits assumed)
T1 construct: neither place states the form; also called the mouse E-cadherin
T1 sequence (looked up): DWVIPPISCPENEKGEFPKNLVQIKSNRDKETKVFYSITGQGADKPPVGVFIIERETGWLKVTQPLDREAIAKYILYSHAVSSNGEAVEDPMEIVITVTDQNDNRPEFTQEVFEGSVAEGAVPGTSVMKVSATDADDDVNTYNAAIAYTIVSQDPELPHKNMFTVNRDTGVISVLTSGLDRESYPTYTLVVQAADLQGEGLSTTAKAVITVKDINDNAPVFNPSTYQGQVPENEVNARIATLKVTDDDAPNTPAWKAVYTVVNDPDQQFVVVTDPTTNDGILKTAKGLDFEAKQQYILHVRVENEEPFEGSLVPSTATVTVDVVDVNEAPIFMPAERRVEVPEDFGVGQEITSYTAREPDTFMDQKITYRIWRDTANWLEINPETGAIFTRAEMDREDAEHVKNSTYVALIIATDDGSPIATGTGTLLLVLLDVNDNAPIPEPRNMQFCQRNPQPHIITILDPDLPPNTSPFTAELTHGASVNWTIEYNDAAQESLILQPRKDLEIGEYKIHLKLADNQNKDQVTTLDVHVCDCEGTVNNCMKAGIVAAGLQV

T2: mouse E-cadherin on cells (endogenous on 4T1 and Py2T cells; expressed in colo205 cells) (mouse, UniProt P09803 157-884)
T2 construct: whole, on cells; also called endogenous mouse E-cadherin; mE-cadherin
T2 sequence (looked up): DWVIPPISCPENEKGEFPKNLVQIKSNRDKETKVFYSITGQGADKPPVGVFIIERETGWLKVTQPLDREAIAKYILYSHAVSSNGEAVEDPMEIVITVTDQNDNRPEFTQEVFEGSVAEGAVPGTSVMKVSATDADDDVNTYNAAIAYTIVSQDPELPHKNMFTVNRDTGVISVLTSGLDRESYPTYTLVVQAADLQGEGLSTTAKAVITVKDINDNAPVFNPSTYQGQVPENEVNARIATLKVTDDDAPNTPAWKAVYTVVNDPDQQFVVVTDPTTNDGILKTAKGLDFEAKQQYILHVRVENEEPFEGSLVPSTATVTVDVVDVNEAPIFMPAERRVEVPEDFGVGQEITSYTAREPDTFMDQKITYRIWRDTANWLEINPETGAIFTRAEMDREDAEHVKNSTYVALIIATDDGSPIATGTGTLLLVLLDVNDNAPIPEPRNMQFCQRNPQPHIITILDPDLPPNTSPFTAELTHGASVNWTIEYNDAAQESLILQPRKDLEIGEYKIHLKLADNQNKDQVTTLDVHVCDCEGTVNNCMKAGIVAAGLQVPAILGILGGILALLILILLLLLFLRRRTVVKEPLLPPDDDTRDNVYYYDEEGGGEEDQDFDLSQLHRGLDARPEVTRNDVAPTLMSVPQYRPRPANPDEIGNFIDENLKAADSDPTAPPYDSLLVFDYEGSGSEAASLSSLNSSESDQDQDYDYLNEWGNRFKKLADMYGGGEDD


Key:
[1] = biological target: T1, mouse E-cadherin (form in the assay not …); assay: ELISA of hybridomas
[2] = biological target: T2, mouse E-cadherin on cells (endogenous …); assay: immunofluorescence staining of parental 4T1 cells, antibody at 1 µg/mL for 7 hrs
[3] = biological target: T1, mouse E-cadherin (form in the assay not …); assay: not described

| Binder | binding result [1] | binding result [2] | binding result [3] |
| --- | --- | --- | --- |
| rabbit anti-mouse E-cad monoclonal antibody mAb-2_18-5 (antibody, mouse IgG1, V domains shown, also called Whole IgG 18.5) VH: EQLEESGGGLVKPGASLTLTCTASGFDLSTYFYMCWVRQAPGKGLEWIACIYVGSTGDTYYANWAKGRFTISKTSSTTVTLQMTSLTDADTATYFCARDIFATGINYYRALWGPGTLVTVSS VL: AFELTQTPASVEAGVGGTVTIKCQASESINSWLSWYQQKPGQPPTLLIYSASTLASGVPSRFKGSRSGTQFTLTISDLECADAATYYCQSYYGTSTTAFGGGTEVVVK | binds | binds | – |
| mouse anti-human E-cad monoclonal antibody mAB-1_19A11 (antibody, V domains shown, also called mAb 19A11) VH: QVQLKESGPGLVAPSQSLSITCTVSGFSLSRYGVHWVRQPPGKGLEWLGMMWGGGNTDYNSALKSRLSISKDNSKSQVFLKMNSLQTDDTAMYYCASSNYVLGYAMDYWGQGTSVTVSS VL: DIVMTQSPSSLAMSVGQKVTMNCKSSQSLLNSSNQKNYLAWYQQKPGQSPKLLIYFTSTRGSGVPDRFIGSGSGTDFTLTISSVEAEDLADYFCQQHYRTPHTFGGGTKVEIK | – | – | no binding |
